# Test results taken from patent publication US20070060521A1 (UNIVERSITY OF SOUTH FLORIDA A PUBLIC CORPORATION OF THE …, published 2007).
# Non-standard residues stand in square brackets, D forms with d. No end group written: not given here. pY = N[C@@H](Cc1ccc(OP(=O)(O)O)cc1)C(=O)O
# Target: STAT3 with DNA-binding activity in vitro (activated STAT3 dimers)
# Experiment: cell-based or functional assay
row,"IC50, Disruption of STAT3 DNA-binding Activity [µM]",Binder
1,421,Ac-[pY]-Leu-Lys [Ac-Y*LK (SEQ ID NO:31)]
2,326,P[pY]LA [PY*LA (SEQ ID NO:35)]
3,280,P[pY]LKTK [PY*LKTK (SEQ ID NO:20)]

# Second part, the binder before the results:
row,Binder,"IC50, Disruption of STAT3 DNA-binding Activity [µM]"
1,Ac-P[pY]LK [Ac-PY*LK (SEQ ID NO:34)],156
2,A[pY]LK [AY*LK (SEQ ID NO:30)],365
3,Ac-P[pY]LKTK [Ac-PY*LKTK (SEQ ID NO:32)],212
